{"source": "paper PMC6082896", "biological_target": "T1, OxyR (Pseudomonas aeruginosa (PAO1?)) (UniProt Q9HTL4)", "T1 sequence": "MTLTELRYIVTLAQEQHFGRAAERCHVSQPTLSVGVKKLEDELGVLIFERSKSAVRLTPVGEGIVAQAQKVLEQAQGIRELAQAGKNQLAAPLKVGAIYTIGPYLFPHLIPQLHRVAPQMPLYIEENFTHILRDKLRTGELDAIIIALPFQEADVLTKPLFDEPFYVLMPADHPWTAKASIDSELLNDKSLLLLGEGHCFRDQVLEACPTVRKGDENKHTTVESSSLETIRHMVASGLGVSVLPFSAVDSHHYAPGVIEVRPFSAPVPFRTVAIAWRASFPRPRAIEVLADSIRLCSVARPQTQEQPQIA", "assay": "EMSA", "conditions": "20 mM Tris-HCl pH 7.0, 50 mM KCl, 1 mM EDTA, 5% glycerol, 50 ug/ml BSA, 5 ug/ml calf thymus DNA, 0.5 ug/ml poly[dI-dC], 50 ug/ml salmon sperm DNA, 100 mM DTT …"}
{"sequence": "AAGTCGGTGATGGCCTCGCCGGCCAGGCGGCGCAGGCGCTTCTGCAGTTTGTTCTGATTGACCGAAAGGGTGCCCATGGTGCTCTGGAATCCGGGTGTTCGAGGAGAAAAGCTGGCTATTTTACGCACAAAGCGACGCCGACCCCAGCCCCTCCCGACGCCCGATGCTAGTCTTGCCCCATGACTCCCGACCTCGACCACCGCCTCGACCT (double strand) [ttcA promoter fragment]", "values": [{"measurement": "binding", "result": "binds"}]}
